Test: yeast display, Sf9 membrane polyspecificity reagent, FACS + sequencing; frameworks hold sequencing errors
Outline: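 Synthetic nanobody libraries on Saccharomyces cerevisiae BJ5465 were galactose-induced for 36–48 hours, stained 1 hour at 4 °C with 10% biotinylated, detergent-solubilized Sf9 membrane reagent and enriched on streptavidin microbeads. FACS then separated cells into low and high (top ~1%) gates by anti-HA (expression) and streptavidin (reagent binding) fluorescence. Genes were colony-PCR amplified, MiSeq 2 × 250 sequenced and CDR-length filtered. A clone's polyreactivity label is that of its gate of origin.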

Sequence | polyreactivity (PSR sort gate)
QVQLVESGGGIVQAGGSLRLSCAASGSTFLYYAMGWYRQAPGKERELVAAISSGGSTYYADSVKGRFTISRDNAKNTVYLQMNSLKPEDTAVYYCAAVRPGYVAYYYWGQGTQVTVSS | high polyreactivity
QVQLVESGGGIVQAGGSLRLSCAASGSTFNWNAMGWYRQAPGKEREFVAAISKSGGTTYYADSVKGRFTISRDNAKNTVYLQMNSLKPEDTAVYYCAAVRRYHSYPDGGYWGQGTQVTVSS | high polyreactivity
QVQLVESGGGIVQAGGSLRLSCAASGSTFVSNAMGWYRQAPGKERELVAAITTGGSTYYADSVKGRFTISRDNAKNTVYLQMNSLKPEDTAVYYCAADSVLNWFWGQGTQVTVSS | low polyreactivity
QVQLVESGGGIVQAGGSLRLSCAASGSTFVVYAMVWYRQEPGKERELVAAITSGGSTYYADSVKGRFTISRDNAKNTVFLQMNSLKPDDSAVYYCNKDDFSNELYWGQGTDVTVSS | low polyreactivity
QVQLVESGGGIVQAGGSLRLSCAASGSTLDYHDMGWYRQAPGKEREFVAAIRSNDGSTYYADSVKGRFTISLDNAKNTVYLQMNSLKPEDTAVYYCNKDVWDGYDWPEFDYWGQGTQVTVSS | low polyreactivity
QVQLVESGGGIVQAGGSLRLSCAASGSTSSSDDMGWYRQAPGQERELVADITSGGRTYYADSVKGRFTISRDNAKNTVYLQMNSLKPEATAVYYCAADTIEHYSLVTPTQGKFDSWGQGTQVTVSS | low polyreactivity
QVQLVESGGGIVQAGGSLRLSCAASGYTISYYAMGCYRQAPGKERELVASISWRGGGTYYADSVKGRFTISRDNAKNTVYLQMNSLKAEDTAVYYCNIDYYATPYGYWGQGTQVTVSS | low polyreactivity
QVQLVESGGGIVQAGGSLRLSCAATGFTFVYYAMGWYRQEPGKERELVAAISSRGGSTNYADSVKGRFTISRDNAKKTVYLQMNSLKPEDTAVYYCAARANTKKPYYYWGQGTQVTVSS | high polyreactivity
QVQLVESGGGIVQAGGSLRLSCADSGFISVTYAMGWYRPAPGKERELDAAITYSGGSTYYADSVKGRYTISRDNAKNTVYLQMNSLKPEDTAVYYCAKKRRVVVLSVQGDYWGQGTQVTVSS | low polyreactivity
QVQLVESGGGIVQAGGSLRLSCPASGIIFYLNPMGWSRQAPGKERELVAAITRGGSTYYADSVKGRFTISRDNEKNTVYLQMNSLKPEDTAVYYWAAKHGPGYRRWYDYWGQGTQVTVSS | high polyreactivity
QVQLVESGGGIVQAGGSLRLSFAASGSTFNSNVMGWYRQAPGKERELVAAISRSGGNTYYADSVKGRFTISRDNAKNTVYLLMNSLKPEDTAVYYCNKAGRYPYDYWGQGTQVTVSS | high polyreactivity
QVQLVESGGGIVQAGGSLRLSSAASGRIFYRYAMGWYRQAPGKERELVASITRSGITHYADSVNGRFTISRDNAKNTVYLQMNSLKPEDTAVYYCNKRPWHRSSRPFYYWGQGTQVTVSS | high polyreactivity
QVQLVESGGGIVQAGGSLRLTCAASGRILGSNSIAWYRHAPGKERELVAAITSTGSTDYADSVKGRFTISRDNAKKTVYLQMNSLKPEDTAVYYCAADTSPYQDDYWGQGTQVTVSS | low polyreactivity
QVQLVESGGGIVQAGGSLSLSCAASGFNFGIYAMGWYRQAPGKEREFVAAITGSAGSTYYADSVKGRFTISLDNAKNTVYLQMNSLKPEDTAVYYCAAVLRTHRYGGYNYWGQGTQVTVSS | low polyreactivity
QVQLVESGGGIVQAGVSLRLSCAASGSTFRDYAMGWSRPAPGKERELVAAISNSGGRTYYADSVKGRFTISRDNAKNTVYLQMYSLKPEDTAVYYCNAGRQTKWGQGTQVTVSS | high polyreactivity
QVQLVESGGGIVQEGGSLRLSCAASGRIFGTNAMGWYRQAPGKERELVATITRGGGNTYYADSVKGRFTISRDNAKNTVYLQMKSLKPEDTAVYYCAAKFHRFAWYSHYDYWGQGTQVTVSS | low polyreactivity
QVQLVESGGGIVQEGGSLRLSCAASGSTFRDYAMGWYRQAPGKERELVAAISSRGATTYYADSVKGRFTISRDNAKNTVYLQMNSLKPEDTAVYYCNARQRRNPGGYGYWGQVTQVTVSS | high polyreactivity

From the nanobody polyreactivity screen of Harvey et al. (2022)
